These results are taken from patent US20080003630.

This data set addresses GST-poly (Glu, Tyr) fusion protein.

Sequence of GST-poly (Glu, Tyr) fusion protein (chain, as listed by the source): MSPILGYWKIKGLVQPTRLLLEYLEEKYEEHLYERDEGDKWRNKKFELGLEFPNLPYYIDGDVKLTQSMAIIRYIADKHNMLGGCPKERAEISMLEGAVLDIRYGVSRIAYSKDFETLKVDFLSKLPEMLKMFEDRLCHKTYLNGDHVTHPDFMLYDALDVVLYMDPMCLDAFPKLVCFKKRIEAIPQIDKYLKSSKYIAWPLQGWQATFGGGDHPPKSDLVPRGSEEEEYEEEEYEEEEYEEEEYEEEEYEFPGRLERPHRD

B1: IGF-1 Receptor Kinase, intracellular domain (ICD) (protein)
chain: RKRNNSRLGNGVLYASVNPEYFSAADVYVPDEWEVAREKITMSRELGQGSFGMVYEGVAKGVVKDEPETRVAIKTVNEAASMRERIEFLNEASVMKEFNCHHVVRLLGVVSQGQPTLVIMELMTRGDLKSYLRSLRPEMENNPVLAPPSLSKMIQMAGEIADGMAYLNANKFVHRDLAARNCMVAEDFTVKIGDFGMTRDIYETDYYRKGGKGLLPVRWMSPESLKDGVFTTYSDVWSFGVVLWEIATLAEQPYQGLSNEQVLRFVMEGGLLDKPDNCPDMLFELMRMCWQYNPKMRPSFLEIISSIKEEMEPGFREVSFYYSEENKLPEPEELDLEPENMESVPLDPSASSSSLPLPDRHSGHKAENGPGPGVLVLRASFDERQPYAHMNGGRKNERALPLPQSSTC
Regarding B1, the “phosphorylation of the plate-bound substrate, ELISA with HRP-labeled p-Tyr (PY20) antibody, absorbance (650 nm)” value was “In either case of HER1 and IGF1R, as the tyrosine kinase amount increased, a measured value was increased”; the “phosphorylation of the substrate with ATP, Western blotting with Anti-Phosphotyrosine clone 4G10” value (“phosphorylation of the substrate” below) was “In +of all of (i to vii) in FIG. 1, a single band was observed at a position where the phosphorylated GST-poly (Glu, Tyr) fusion protein appears”.

B2: PDGF Receptor β Kinase, intracellular domain (ICD) (protein)
chain: RYEIRWKVIESVSSDGHEYIYVDPMQLPYDSTWELPRDQLVLGRTLGSGAFGQVVEATAHGLSHSQATMKVAVKMLKSTARSSEKQALMSELKIMSHLGPHLNVVNLLGACTKGGPIYIITEYCRYGDLVDYLHRNKHTFLQHHSDKRRPPSAELYSNALPVGLPLPSHVSLTGESDGGYMDMSKDESVDYVPMLDMKGDVKYADIESSNYMAPYDNYVPSAPERTCRATLINESPVLSYMDLVGFSYQVANGMEFLASKNCVHRDLAARNVLICEGKLVKICDFGLARDIMRDSNYISKGSTFLPLKWMAPESIFNSLYTTLSDVWSFGILLWEIFTLGGTPYPELPMNEQFYNAIKRGYRMAQPAHASDEIYEIMQKCWEEKFEIRPPFSQLVLLLERLLGEGYKKKYQQVDEEFLRSDHPAILRSQARLPGFHGLRSPLDTSSVLYTAVQPNEGDNDYIIPLPDPKPEVADEGPLEGSPSLASSTLNEVNTSSTISCDSPLEPQDEPEPEPQLELQVEPEPELEQLPDSGCPAPRAEAEDSFL
B2: the “phosphorylation of the substrate” value is reported as “In +of all of (i to vii) in FIG. 1, a single band was observed at a position where the phosphorylated GST-poly (Glu, Tyr) fusion protein appears”.

B3: VEGF Receptor 1 Kinase, intracellular domain (ICD) (protein)
chain: RKMKRSSSEIKTDYLSIIMDPDEVPLDEQCERLPYDASKWEFARERLKLGKSLGRGAFGKVVQASAFGIKKSPTCRTVAVKMLKEGATASEYKALMTELKILTHIGHHLNVVNLLGACTKQGGPLMVIVEYCKYGNLSNYLKSKRDLFFLNKDAALHMEPKKEKMEPGLEQGKKPRLDSVTSSESFASSGFQEDKSLSDVEEEEDSDGFYKEPITMEDLISYSFQVARGMEFLSSRKCIHRDLAARNILLSENNVVKICDFGLARDIYKNPDYVRKGDTRLPLKWMAPESIFDKIYSTKSDVWSYGVLLWEIFSLGGSPYPGVQMDEDFCSRLREGMRMRAPEYSTPEIYQIMLDCWHRDPKERPRFAELVEKLGDLLQANVQQDGKDYIPINAILTGNSGFTYSTPAFSEDFFKESISAPKFNSGSSDDVRYVNAFKFMSLERIKTFEELLPNATSMFDDYQGDSSTLLASPMLKRFTWTDSKPKASLKIDLRVTSKSKESGLSDVSRPSFCHSSCGHVSEGKRRFTYDHAELERKIACCSPPPDYNSVVLYSTPPI
As for B3, the “phosphorylation of the substrate” value is reported as “In +of all of (i to vii) in FIG. 1, a single band was observed at a position where the phosphorylated GST-poly (Glu, Tyr) fusion protein appears”.

B4: ErbB4 Kinase, intracellular domain (ICD) (protein)
chain: RRKSIKKKRALRRFLETELVEPLTPSGTAPNQAQLRILKETELKRVKVLGSGAFGTVYKGIWVPEGETVKIPVAIKILNETTGPKANVEFMDEALIMASMDHPHLVRLLGVCLSPTIQLVTQLMPHGCLLEYVHEHKDNIGSQLLLNWCVQIAKGMMYLEERRLVHRDLAARNVLVKSPNHVKITDFGLARLLEGDEKEYNADGGKMPIKWMALECIHYRKFTHQSDVWSYGVTIWELMTFGGKPYDGIPTREIPDLLEKGERLPQPPICTIDVYMVMVKCWMIDADSRPKFKELAAEFSRMARDPQRYLVIQGDDRMKLPSPNDSKFFQNLLDEEDLEDMMDAEEYLVPQAFNIPPPIYTSRARIDSNRSEIGHSPPPAYTPMSGNQFVYRDGGFAAEQGVSVPYRAPTSTIPEAPVAQGATAEIFDDSCCNGTLRKPVAPHVQEDSSTQRYSADPTVFAPERSPRGELDEEGYMTPMRDKPKQEYLNPVEENPFVSRRKNGDLQALDNPEYHNASNGPPKAEDEYVNEPLYLNTFANTLGKAEYLKNNILSMPEKAKKAFDNPDYWNHSLPPRSTLQHPDYLQEYSTKYFYKQNGRIRPIVAENPEYLSEFSLKPGTVLPPPPYRHRNTVV
As for B4, the “phosphorylation of the substrate” value was “In +of all of (i to vii) in FIG. 1, a single band was observed at a position where the phosphorylated GST-poly (Glu, Tyr) fusion protein appears”.
